Reference: article PMC10231232, “Expanding the Physiological Role of Aryl-Alcohol Flavooxidases as Quinone Reductases” (Applied and Environmental Microbiology, 2023)
Like-named read-outs stand apart in the source and are kept apart here. One block for each molecule: values may come before it.

Experiments:
PoAAO [1] = tested on: T1, PoAAO; experiment: steady-state kinetics, absorbance of aldehyde formed; type: biochemical, Pleurotus ostreatus; conditions: apparent, air-saturated (0.256 mM O2), 50 mM NaPi pH 6.0, 25°C
T1 construct: gene AAO; 60,903 Da
Text: steady-state kinetics, absorbance of aldehyde formed on PoAAO | The three enzymes oxidized the whole spectrum of alcohols although with different catalytic efficiencies.

PoAAO [2] = tested on: T2, PoAAO; conditions: read-out: Km(acceptor); electron acceptor; p-methoxybenzyl alcohol as co-substrate (varied), ping-pong fit, anaerobic, 50 mM NaPi pH 6.0, 25°C
T2 construct: gene AAO

BaAAO = biological target: T3, BaAAO (Bjerkandera adusta, UniProt A0ABF7PQ87); experiment: bi-substrate steady-state kinetics, anaerobic, BQ reduction at […] nm; type: biochemical; conditions: electron acceptor, p-methoxybenzyl alcohol as co-substrate (varied), ping-pong fit, 50 mM NaPi pH 6.0, 25°C
T3 construct: 62,610 Da; one cysteine
T3 sequence (A0ABF7PQ87 1-580): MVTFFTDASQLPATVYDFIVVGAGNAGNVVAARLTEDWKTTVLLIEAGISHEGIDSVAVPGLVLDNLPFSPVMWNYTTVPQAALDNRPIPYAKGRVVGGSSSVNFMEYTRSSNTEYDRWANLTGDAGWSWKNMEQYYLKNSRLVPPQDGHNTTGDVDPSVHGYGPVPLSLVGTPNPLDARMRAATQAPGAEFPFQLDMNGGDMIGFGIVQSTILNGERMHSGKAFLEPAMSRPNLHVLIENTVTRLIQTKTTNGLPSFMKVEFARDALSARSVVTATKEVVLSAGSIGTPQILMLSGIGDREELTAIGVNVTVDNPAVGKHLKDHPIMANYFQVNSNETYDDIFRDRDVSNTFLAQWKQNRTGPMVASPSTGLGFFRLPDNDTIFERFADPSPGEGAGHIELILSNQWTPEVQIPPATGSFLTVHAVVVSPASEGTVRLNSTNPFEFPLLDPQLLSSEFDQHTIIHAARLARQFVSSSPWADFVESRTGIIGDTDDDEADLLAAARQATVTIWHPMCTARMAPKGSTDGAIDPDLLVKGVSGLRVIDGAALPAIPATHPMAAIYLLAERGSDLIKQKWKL

PeAAO = biological target: T4, PeAAO (Pleurotus eryngii, UniProt O94219); experiment: as above; type: biochemical; conditions: electron acceptor, p-methoxybenzyl alcohol as co-substrate (varied), ping-pong fit, 50 mM NaPi pH 6.0, 25°C
T4 construct: gene aao; 61,847 Da
T4 sequence (O94219 28-593): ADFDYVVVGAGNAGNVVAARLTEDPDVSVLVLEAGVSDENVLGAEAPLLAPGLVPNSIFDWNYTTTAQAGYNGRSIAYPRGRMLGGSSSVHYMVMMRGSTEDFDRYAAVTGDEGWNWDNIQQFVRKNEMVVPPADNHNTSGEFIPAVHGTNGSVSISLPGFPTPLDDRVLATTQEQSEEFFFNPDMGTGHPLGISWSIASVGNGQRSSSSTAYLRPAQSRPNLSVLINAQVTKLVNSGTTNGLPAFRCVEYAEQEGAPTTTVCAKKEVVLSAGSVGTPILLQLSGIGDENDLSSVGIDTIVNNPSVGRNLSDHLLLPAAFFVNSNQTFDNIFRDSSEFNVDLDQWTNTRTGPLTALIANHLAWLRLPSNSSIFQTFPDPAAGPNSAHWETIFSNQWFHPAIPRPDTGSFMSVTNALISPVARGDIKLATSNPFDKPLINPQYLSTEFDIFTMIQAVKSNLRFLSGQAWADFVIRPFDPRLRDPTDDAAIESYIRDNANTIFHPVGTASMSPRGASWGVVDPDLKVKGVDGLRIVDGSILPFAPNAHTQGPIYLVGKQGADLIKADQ

[3] = substrate: CC=CC=CCO; experiment: steady-state kinetics, absorbance of aldehyde formed; type: biochemical, Pleurotus eryngii; conditions: apparent, air-saturated (0.256 mM O2), 50 mM NaPi pH 6.0, 25°C
Text: (§1) steady-state kinetics, absorbance of aldehyde formed on PeAAO | The three enzymes oxidized the whole spectrum of alcohols although with different catalytic efficiencies.

[4] = substrate: COc1ccc(CO)cc1Cl; experiment: as above; type: biochemical, Pleurotus eryngii; conditions: apparent, air-saturated (0.256 mM O2), 50 mM NaPi pH 6.0, 25°C
Text: as §1

[5] = substrate: OCc1cccc(Cl)c1; experiment: purified protein, by the assay type; design: steady-state kinetics, spectrophotometric alcohol oxidation to aldehyde, air-saturated 50 mM NaPi pH 6.0, 25 C; conditions: pH 6.0
Protocol: Steady-state kinetic parameters were measured spectrophotometrically by monitoring the oxidation of the different alcohols to the corresponding aldehydes—Δε285, 16,950 M^−1 cm^−1 for [compound left out]; Δε240, 5,923 M^−1 cm^−1 for 3-chloro-benzyl alcohol; Δε309, 8,332 M^−1 cm^−1 for vanillyl alcohol; Δε307, 7,383 M^−1 cm^−1 for [compound left out]; Δε280, 30,140 M^−1 cm^−1 for 2,4-hexadien-1-ol from ([15]); Δε295, 15,000 M^−1 cm^−1 for 3-chloro-p-mehxoybenzyl alcohol from ([38]); and Δε310, 9,300 M^−1 cm^−1 for [compound left out] from Guillén et al. ([59])—in air-saturated (0.256 mM O2 concentration) 50 mM NaPi, pH 6.0, at 25°C. Steady-state kinetic analyses and statistical fits were performed using the SigmaPlot program. Apparent kinetic parameters in atmospheric oxygen were determined by fitting initial reaction rates (v0) at different alcohol concentrations to the Michaelis-Menten equation (equation 1). (1) v0/e = kcat[A]/Km + [A] The steady-state curves and resulting kinetic parameters for oxidation of different alcohols under atmospheric conditions with O2 as an electron acceptor were compared for PoAAO, BaAAO, and PeAAO (Fig. S4 and Table S1). The three enzymes oxidized the whole spectrum of alcohols although with different catalytic efficiencies.

[6] = substrate: OCc1cccc(Cl)c1; experiment: steady-state kinetics, absorbance of aldehyde formed; type: biochemical, Bjerkandera adusta; conditions: apparent, air-saturated (0.256 mM O2), 50 mM NaPi pH 6.0, 25°C
Text: (§2) steady-state kinetics, absorbance of aldehyde formed on BaAAO | The three enzymes oxidized the whole spectrum of alcohols although with different catalytic efficiencies.

[7] = substrate: CC=CC=CCO; experiment: as above; type: biochemical, Bjerkandera adusta; conditions: apparent, air-saturated (0.256 mM O2), 50 mM NaPi pH 6.0, 25°C
Text: as §2

[8] = substrate: COc1ccc(CO)cc1Cl; experiment: as above; type: biochemical, Bjerkandera adusta; conditions: apparent, air-saturated (0.256 mM O2), 50 mM NaPi pH 6.0, 25°C
Text: as §2

[9] = substrate: COc1cc(CO)ccc1O; experiment: as above; type: biochemical, Bjerkandera adusta; conditions: apparent, air-saturated (0.256 mM O2), 50 mM NaPi pH 6.0, 25°C
Text: as §2

Km (PoAAO [1]): 80 ± 6 µM
Molecule: OCc1cccc(Cl)c1 [3-chlorobenzyl alcohol]

Km (PoAAO [1]): 86 ± 4 µM
Molecule: CC=CC=CCO [2,4-hexadien-1-ol]

Molecule: COc1ccc(CO)cc1O [isovanillyl alcohol]
Km (PoAAO [1]): 713 ± 44 µM

Molecule: COc1ccc(CO)cc1OC [veratryl alcohol]
Km (PoAAO [1]): 212 ± 11 µM

Km (PoAAO [1]): 9 ± 1 µM
Molecule: COc1ccc(CO)cc1Cl [3-chloro-p-methoxybenzyl alcohol]

Molecule: O=C1C=CC(=O)C=C1 [BQ, p-benzoquinone]
Km (PoAAO [2]): 33 ± 4 µM
Km (BaAAO): 70 ± 9 µM
Km (PeAAO): 48 ± 6 µM

B1: PeAAO (Pleurotus eryngii) (protein)
chain: T4 sequence (O94219 28-593)
notes: 61,847 Da
Km [3]: 94 ± 4 µM
kcat [3]: 119 ± 1 s⁻¹
Km [4]: 9 ± 1 µM
kcat [4]: 34 ± 1 s⁻¹
Km [5]: 107 ± 2 µM
kcat [5]: 22 ± 1 s⁻¹
kcat/Km [5]: 203 ± 3 mM^-1s^- //

B2: BaAAO (Bjerkandera adusta) (protein)
chain: T3 sequence (A0ABF7PQ87 1-580)
notes: 62,610 Da; one cysteine
Km [6]: 37 ± 5 µM
kcat [6]: 13 ± 1 s⁻¹
Km [7]: 854 ± 32 µM
kcat [7]: 42 ± 1 s⁻¹
Km [8]: 49 ± 4 µM
kcat [8]: 37 ± 1 s⁻¹
Km [9]: 1960 ± 100 µM
kcat [9]: 38 ± 1 s⁻¹
